This is an account of results in paper PMC10499821 (2023).

As a reminder, the Kd is a measure of binding affinity in units of concentration. Read a high Kd as lower affinity.

Where no end group is shown, it is not given here. The star is where a group is joined. FITC = O=C1OC2(c3ccc(O)cc3Oc3cc(O)ccc32)c2ccc(NC(=S)*)cc21

B9: Nsp9 (natural protein)
chain: NNELSPVALRQMSCAAGTTQTACTDDNALAYYNTTKGGRFVLALLSDLQDLKWARFPKSDGTGTIYTELEPPCRFVTDTPKGPKVKYLYFIKGLNNLNRGMVLGSLAATVRLQ

For test [1], the target named is B9. Briefly: FP.
The next test deals with Nsp3 ADRP (SARS-CoV-2, UniProt P0DTD1 819-2763). Briefly: FP.
The target in test [2] is Nsp9.
For a further test, the target named is Nsp3 SUD-M (SARS-CoV-2, UniProt P0DTD1 819-2763). Briefly: FP.
Another test addresses Nsp3 Ubl1 (SARS-CoV-2, UniProt P0DTD1 819-2763). Briefly: FP.
Another test concerns the target MVB12A 166-180. Briefly: FP.
The next test has as its target MCM9 796-811. Kind of test: FP.
The next test addresses NEK9 737-751. Kind of test: FP.
In the next test the target is RIF1 1780-1795. Briefly: FP.

B1: FITC-DYRK1B 394-409 (peptide)
chain: {FITC}-PGHSPADYLRFQDLVL
On to B1, for which the affinity with Nsp16, expressed as Kd, was 3.2 µM.

B2: NKRF_(8–23) (peptide)
peptide: AEGIDIGEMPSYDLVL
In the case of B2, the Kd in the test with Nsp9 [1] amounted to 50 µM.

B3: MBOAT1_(16–31) (peptide)
peptide: GSTYLHPLSELLGIPL
For the molecule B3, in the test with Nsp3 ADRP, binding was put at a Kd of 104 µM.

B4: AXIN1 1-15 (peptide)
chain: MNIQEQGFPLDLGASY
With B4, in the test with Nsp9 [2], the Kd turned out to be 49 µM.

B5: PRDM14_(197–213) (peptide)
peptide: FTEEDLHFVLYGVTPS
In the test with Nsp3 SUD-M, B5 registered a Kd of 37 µM.

B6: NCOA2_(1074–1089) (peptide)
peptide: SDEGALLDQLYLALRN
Regarding B6, the dissociation constant Kd with Nsp3 Ubl1 was found to be 26 µM.

B7: FITC-DNAH2 92-107 (peptide)
chain: {FITC}-AVWTQEHDAILEHFAQ
The molecule B7 displayed a Kd with Nsp8 of approximately 190 µM.

B8: RIF1 1780-1795 (peptide)
chain: NPYSEGQFLDEHHSVN
B8 returned a Kd with Nsp9 [2] of 88 µM.

For B9, the Kd in the test with MVB12A 166-180 was 450 µM; with MCM9 796-811, approximately 3200 µM; in the test with NEK9 737-751, 111 µM; with RIF1 1780-1795, 88 µM.

B10: NOTCH4 1605-1620 (peptide)
chain: FQGAWLGCPEPWEPLL
B10 showed a Kd with Nsp9 [2] of 125 µM.

B11: NYNRIN_(1031–1046) (peptide)
peptide: CPSLSEEILRCLSLHD
On to B11, for which binding in the test with Nsp3 Ubl1 was put at a Kd of 150 µM.

B12: AXIN1_(1–15) (peptide)
peptide: MNIQEQGFPLDLGAS
B12 displayed a Kd in the test with Nsp9 [1] of 49 µM.

B13: NEK9 737-751 (peptide)
chain: SSGLSIGTVFQSSSPY
For B13, in the test with Nsp9 [2], the Kd turned out to be 111 µM.

B14: N_(216–231) peptide (peptide)
peptide: DAALALLLLDRLNQLE
In the case of B14, binding with Nsp3 Ubl1 was put at a Kd of 64 µM. In other words, the double-digit micromolar range.

B15: MVB12A 166-180 (peptide)
chain: MQGLSLDAASQPSKGY
Consider B15, for which the affinity with Nsp9 [2], expressed as Kd, was 450 µM.

B16: LMTK3_(22–36) (peptide)
peptide: PAHPDGFALGRAPLA
Molecule B16 registered a Kd in the test with Nsp9 [1] of 34 µM.

B17: MCM9 796-811 (peptide)
chain: DIGLLPSPGETGVPWR
Consider B17, for which, in the test with Nsp9 [2], the Kd was approximately 3200 µM.

B18: LMTK3 22-36 (peptide)
chain: YPAHPDGFALGRAPLA
As for B18, binding in the test with Nsp9 [2] was characterised by a dissociation constant (Kd) of 34 µM.
